B1: GOLPH3 (parent)
chain: FAPLLDEQYDLATKRVRQLLDLDP

Variants of: B1
Assay: protein stability index of a GFP-peptide fusion (GPS, HEK-293T) (PSI 1-6); higher = more stable
Details: c terminus: a fixed tail appended
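Further: lentivirally expressed fusions sorted by FACS into six bins by GFP to DsRed ratio, PSI derived from sequencing read proportions per bin multiplied by bin number.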

Protein stability index, by site and new letter:
K14: A 1.76 | V 1.84 | L 3.14 | I 1.64 | H 1.99 | F 1.17 | C 2.29 | R 2.24 | W 2.28 | G 1.99 | T 2.11 | P 2.29 | N 2.02 | E 2.14 | Q 1.88 | S 2
D21: P 1.48 | Y 1.88 | G 2.29 | K 1.64 | L 2.1 | V 2.79 | R 1.55 | N 2.12 | W 2.22 | T 1.9 | M 1.85 | Q 2.1 | E 2.08 | S 1.95 | H 1.55
L20: Q 2.24 | R 1.91 | E 2.76 | A 2.92 | M 2.3 | I 2.59 | W 2.11 | K 2.59 | T 2.27 | D 2.34 | C 2.27 | Y 1.94 | S 2.53
L22: W 1.83 | R 2.26 | F 2.61 | E 3.16 | A 3.04 | S 2.29 | Y 2.29 | M 2.58 | G 2.58 | N 2.46 | C 1.95 | K 2.27
V16: C 2.09 | P 2.45 | L 1.51 | M 1.96 | D 2.02 | N 2 | K 1.54 | S 1.74 | Q 2.4 | I 2.19 | H 1.65 | W 1.37 | G 2.75 | E 3.32 | R 1.82
E7: S 2.12 | H 1.76 | P 2.12 | N 1.91 | R 2.79 | F 1.91 | K 1.87 | V 1.89 | Q 2.66 | L 1.55 | W 2.56 | T 1.86 | M 1.9 | Y 1.48 | I 1.65 | D 2.02
R17: G 2.45 | A 2.37 | E 2.41 | M 2.27 | L 2.13 | D 3.1 | Q 2.77 | P 2.45 | C 2.14 | S 2.61 | Y 1.74 | I 2.22
A12: K 1.99 | P 2.04 | D 2.72 | E 2.66 | M 2.8 | S 2.36 | C 1.57 | F 1.74 | V 1.88 | T 2.3 | L 1.82 | H 2.43 | N 2.47 | R 2.04 | G 2.12
L11: T 2.28 | H 2.73 | P 2.91 | S 2.27 | A 3.3 | W 2.82 | C 2.26 | Q 3.52 | F 1.94 | M 3.03 | E 3.48 | N 2.28 | Y 2.51 | I 2.36 | V 2.21
P3: M 1.78 | V 2.38 | G 2.59 | D 2.79 | W 2.16 | K 2.44 | N 3.18 | A 2.34 | H 3.07 | Q 2.05 | L 1.6 | C 2.44 | T 2.88 | F 1.52 | R 1.87
R15: C 2.1 | S 1.8 | Q 2.11 | M 1.99 | G 1.74 | Y 1.51 | T 1.76 | I 2.01 | K 1.93 | W 1.61 | D 2.73 | L 2.24 | E 2.43 | N 2.3
Y9: S 2.96 | D 2.98 | H 2.49 | I 2.26 | A 2.9 | K 2.4 | Q 2.64 | E 3.5 | C 2.9 | R 2.2 | T 2.45 | P 2.59
P24: I 1.38 | C 2.36 | D 1.87 | G 2.28 | S 1.48 | E 2.46 | V 2.7 | Q 2.33 | R 2.28 | L 2.11 | F 3.43
L4: V 3.17 | C 1.67 | F 2.01 | R 1.43 | D 3.39 | I 2.33 | A 1.81 | M 1.76 | G 2.27 | K 2.34 | N 3.2 | H 2.31 | S 1.75
L5: R 1.18 | H 2.42 | A 2.34 | V 2.21 | Y 2.45 | E 3.7 | T 1.95 | P 2.21 | C 1.82 | Q 2.45 | M 2.38 | I 1.78
Q8: T 2.64 | D 2.96 | K 1.75 | P 1.74 | N 1.84 | W 1.32 | L 1.95 | E 2.64 | G 2.08 | Y 2.33 | H 2.04 | C 2.1 | M 1.88 | F 1.5
A2: S 3.46 | Y 2.43 | L 2.2 | P 3.45 | N 3.01 | H 2.48 | G 3.19 | C 1.85 | F 2.03 | E 3.13 | I 1.75 | D 3.71 | K 3.14 | W 1.92 | T 2.71
D10: N 1.59 | P 2.4 | W 3.11 | K 1.98 | V 1.27 | M 2.24 | G 2.15 | H 1.58 | R 2.23 | E 2.36 | Q 1.46 | C 2.54 | S 2.03 | Y 1.63 | T 1.56
T13: S 2.24 | R 1.57 | L 2.28 | K 2.32 | M 1.89 | Y 1.28 | V 2.28 | F 1.96 | P 2.22 | N 1.9 | I 1.6 | Q 1.84 | C 1.54 | A 2.41 | G 3.19 | E 2.56
F1: V 3.06 | T 4.11 | Q 4.03 | E 4.59 | G 4.41 | C 2.5 | L 3.67 | Y 2.39 | S 4.39 | M 3.58
Q18: F 2.67 | P 2.04 | M 2.02 | G 2.08 | W 2.36 | S 2.11 | V 2.99 | C 1.38 | K 2.18 | L 2.52 | H 2.47 | N 2.2
D6: K 2.4 | H 1.48 | Q 1.42 | T 1.76 | N 1.54 | L 1.83 | E 2.22 | P 2.81 | W 1.88 | F 1.49 | M 2.25 | I 1.46 | G 1.45 | Y 2.03 | A 2.38 | V 1.75
D23: M 1.53 | E 1.87 | L 2.01 | Y 2.12 | S 1.85 | H 1.69 | G 2.65 | P 1.8 | T 1.94 | C 2.41 | I 1.62 | V 1.6 | Q 2.11
L19: F 1.63 | I 2.46 | E 2.58 | Q 2.24 | W 2.27 | V 2.33 | R 1.65 | G 2.26 | H 2.09 | N 1.89 | D 3.22 | Y 1.85 | P 2.65 | A 2.7 | S 2.21 | K 2.14 | T 2.61

Reference: the supplement of paper PMC10567573
